Assay results from patent US20260209316A1.
Where two headings read alike, the source gives them in different places.

Columns and labels:
[1] = molecular target: thermolysin-cleaved SUDV GP (GP(S)THL) (Sudan virus (SUDV)) (UniProt Q7T9D9); experiment: BLI; Sudan GPTHL on sensor, NPC1-dC, then NPC1-dC (self-competition)
[2] = molecular target: thermolysin-cleaved SUDV GP (GP(S)THL) (Sudan virus (SUDV)) (UniProt Q7T9D9); experiment: as above; remark: listed apart in the source

Sequence of Niemann-Pick disease, type C1-domain C (NPC1-dC) (O15118 373-620 limits assumed): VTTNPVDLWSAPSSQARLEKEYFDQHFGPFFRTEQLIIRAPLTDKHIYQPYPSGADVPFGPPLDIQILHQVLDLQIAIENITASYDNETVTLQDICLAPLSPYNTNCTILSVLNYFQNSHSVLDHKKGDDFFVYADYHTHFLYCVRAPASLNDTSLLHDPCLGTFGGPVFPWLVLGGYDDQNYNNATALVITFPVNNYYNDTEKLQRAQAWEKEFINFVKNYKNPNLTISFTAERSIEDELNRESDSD

Niemann-Pick disease, type C1-domain C (NPC1-dC) (from UniProt O15118 373-620) (receptor)
percent blocking of NPC1-dC binding [1]: 72% | percent blocking of NPC1-dC binding [2]: 79%
